This assay deals with MET-Fc: extracellular MET domain fused with human IgG1-Fc (human, UniProt P08581 25-932). Briefly: AlphaScreen or HTRF. A general note: In Alpha technology, singlet oxygen from a donor bead excites a nearby acceptor bead.
MET-Fc: extracellular MET domain fused with human IgG1-Fc, sequence (P08581 25-932): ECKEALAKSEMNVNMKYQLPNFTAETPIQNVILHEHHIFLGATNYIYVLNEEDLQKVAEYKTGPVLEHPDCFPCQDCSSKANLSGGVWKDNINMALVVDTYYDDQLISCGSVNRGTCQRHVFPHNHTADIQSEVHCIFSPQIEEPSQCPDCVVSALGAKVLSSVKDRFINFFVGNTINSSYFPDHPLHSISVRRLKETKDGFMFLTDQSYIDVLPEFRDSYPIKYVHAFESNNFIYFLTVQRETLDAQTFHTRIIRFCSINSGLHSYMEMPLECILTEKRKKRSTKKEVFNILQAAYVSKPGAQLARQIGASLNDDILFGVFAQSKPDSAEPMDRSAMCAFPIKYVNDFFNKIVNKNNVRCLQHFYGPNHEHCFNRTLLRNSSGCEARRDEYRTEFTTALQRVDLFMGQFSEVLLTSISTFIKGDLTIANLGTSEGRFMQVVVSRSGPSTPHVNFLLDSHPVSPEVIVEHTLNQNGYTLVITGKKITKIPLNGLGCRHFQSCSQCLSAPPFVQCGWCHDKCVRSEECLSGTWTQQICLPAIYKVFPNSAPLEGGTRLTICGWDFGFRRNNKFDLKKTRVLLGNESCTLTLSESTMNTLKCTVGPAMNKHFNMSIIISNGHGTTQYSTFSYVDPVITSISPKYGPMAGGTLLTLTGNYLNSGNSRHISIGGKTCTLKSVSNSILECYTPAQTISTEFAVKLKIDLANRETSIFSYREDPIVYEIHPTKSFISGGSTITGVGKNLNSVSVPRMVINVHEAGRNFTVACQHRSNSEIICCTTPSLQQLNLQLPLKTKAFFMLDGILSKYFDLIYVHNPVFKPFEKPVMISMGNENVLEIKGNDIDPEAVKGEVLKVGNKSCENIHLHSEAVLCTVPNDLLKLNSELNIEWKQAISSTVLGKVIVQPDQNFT

B1: K1B: synthetic K1 domain of HGF/SF (residues 125-209) with C-terminal Gly-Gly-Lys(biotin) (domain or fragment)
chain: IRNCIIGKGRSYKGTVSITKSGIKCQPWSSMIPHEHSFLPSSYRGKDLQENYCRNPRGEEGGPWCFTSNPEVRYEVCDIPQCSEVGGK
modifications: biotin on the side chain of the added C-terminal lysine; three disulfide bonds
For orientation: Kd means the free concentration of one partner at which half of the binding sites on the other are occupied at equilibrium, for simple one-to-one binding. B1 showed a Kd of approximately 16 nM.

The values above are taken from article PMC5496502 (Chemical Science, 2015).
